Laboratory results: patent US20190002511A1 (NATIONAL UNIVERSITY OF SINGAPORE, published 2019)
Like-named read-outs stand apart in the source and are kept apart here. Square brackets hold non-standard residues; d marks the D form. Ends that are not written are not given here. β3hR = N=C(N)NCCC[C@H](N)CC(=O)O

What was measured:
[1] = target: T1, human α-thrombin (recombinant) (human, UniProt P00734 328-363; P00734 364-622); test: cell-based or functional assay
[2] = target: T1, human α-thrombin (recombinant); test: cell-based or functional assay; remark: listed apart in the source
[3] = target: T1, human α-thrombin (recombinant); test: cell-based or functional assay; remark: listed apart in the source
[4] = target: urokinase; test: cell-based or functional assay
[5] = target: tPA; test: cell-based or functional assay
[6] = target: kallikrein; test: cell-based or functional assay
[7] = target: fXIa; test: cell-based or functional assay
[8] = target: fIXa; test: cell-based or functional assay
[9] = target: bovine trypsin (bovine, UniProt P00760 24-246); test: cell-based or functional assay
Chain of bovine trypsin (P00760 24-246): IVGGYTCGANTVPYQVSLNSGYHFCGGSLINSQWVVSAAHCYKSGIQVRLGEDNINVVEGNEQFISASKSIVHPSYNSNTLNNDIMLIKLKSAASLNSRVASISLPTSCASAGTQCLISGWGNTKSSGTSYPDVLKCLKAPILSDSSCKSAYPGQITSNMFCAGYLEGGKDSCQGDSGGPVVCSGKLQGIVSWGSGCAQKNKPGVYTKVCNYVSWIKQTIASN

[10] = target: APC; test: cell-based or functional assay
[11] = target: plasmin; test: cell-based or functional assay
[12] = target: fVIIa; test: cell-based or functional assay
Chain of fVIIa (P08709 whole entry): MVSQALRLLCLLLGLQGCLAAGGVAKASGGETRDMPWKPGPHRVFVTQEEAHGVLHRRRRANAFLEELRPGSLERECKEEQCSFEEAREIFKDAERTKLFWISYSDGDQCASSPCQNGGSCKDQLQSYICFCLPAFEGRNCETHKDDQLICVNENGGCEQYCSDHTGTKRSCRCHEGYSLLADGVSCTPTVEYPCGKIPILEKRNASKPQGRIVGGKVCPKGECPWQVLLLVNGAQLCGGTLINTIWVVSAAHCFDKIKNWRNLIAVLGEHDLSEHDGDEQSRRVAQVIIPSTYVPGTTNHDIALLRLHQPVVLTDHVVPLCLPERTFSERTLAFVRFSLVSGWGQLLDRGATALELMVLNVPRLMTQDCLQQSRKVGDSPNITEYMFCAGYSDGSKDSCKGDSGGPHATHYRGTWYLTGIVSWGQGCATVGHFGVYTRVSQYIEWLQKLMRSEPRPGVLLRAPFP

[13] = target: fXIIa; test: cell-based or functional assay
[14] = target: fXa; test: cell-based or functional assay
Chain of fXa (P00742 whole entry): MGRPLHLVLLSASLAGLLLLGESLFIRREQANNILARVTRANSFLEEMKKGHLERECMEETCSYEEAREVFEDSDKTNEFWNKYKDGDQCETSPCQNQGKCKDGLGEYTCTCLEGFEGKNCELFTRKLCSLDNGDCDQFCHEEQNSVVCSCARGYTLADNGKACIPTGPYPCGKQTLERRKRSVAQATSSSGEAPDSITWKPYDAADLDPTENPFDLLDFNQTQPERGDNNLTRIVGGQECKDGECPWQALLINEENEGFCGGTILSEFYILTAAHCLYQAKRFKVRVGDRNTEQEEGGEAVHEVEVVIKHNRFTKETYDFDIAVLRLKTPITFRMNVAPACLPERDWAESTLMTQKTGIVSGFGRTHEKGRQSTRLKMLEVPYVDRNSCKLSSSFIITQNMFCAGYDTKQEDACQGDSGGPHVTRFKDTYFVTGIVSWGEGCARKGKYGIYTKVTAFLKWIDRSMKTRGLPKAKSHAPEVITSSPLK

[15] = target: bovine chymotrypsin (bovine, UniProt P00766 1-245); test: cell-based or functional assay
[16] = target: T1, human α-thrombin (recombinant); test: thrombin amidolytic assay with S2238, Morrison tight-binding fit, competitive
Text: Data were fitted to the Morrison tight binding equation using GraphPad Prizm software. Each data point is the mean±S.D. of at least three experiments.
(§3) Each data point is the mean±S.D. of at least three independent experiments. […] Each data point is the mean±S.D. of at least three independent experiments. […] Each data point is the mean±S.D. of at least three experiments.

[17] = target: T1, human α-thrombin (recombinant); test: thrombin amidolytic assay with S2238; column headed Affinity (nM)
Protocol: Each data point is the mean±S.D. of at least three experiments. […] Data were fitted to the Morrison tight binding equation using GraphPad Prizm software. Each data point is the mean±S.D. of at least three experiments.
(§4) Thrombin amidolytic activity assays for all peptides were performed in 96-wells microtiter plates in 50 mM Tris buffer (pH 7.4) containing 100 mM NaCl and 1 mg/ml bovine serum albumin. […] Dose-response curves were fitted using the GraphPad Prizm software (San Diego, Calif., USA) to calculate IC50 values and Hill coefficients. To measure the inhibitory constants, different concentrations of S2238 were used and the residual velocities were determined using the Morrison's tight binding equation.

[18] = target: T1, human α-thrombin (recombinant); test: thrombin amidolytic assay with S2238, tight-binding fit
Protocol: (§1) Each data point is the mean±S.D. of at least three independent experiments.
(§2) Thrombin amidolytic activity assays for all peptides were performed in 96-wells microtiter plates in 50 mM Tris buffer (pH 7.4) containing 100 mM NaCl and 1 mg/ml bovine serum albumin. […] The rates of formation of p-nitroaniline were followed by measuring the absorbance at 405 nm for 10 min with a Tecan InfinitePro M200 microplate reader from Tecan (Mannedorf, Switzerland). Dose-response curves were fitted using the GraphPad Prizm software (San Diego, Calif., USA) to calculate IC50 values and Hill coefficients. To measure the inhibitory constants, different concentrations of S2238 were used and the residual velocities were determined using the Morrison's tight binding equation. Inhibition of thrombin fibrinogenolytic activity of peptides were tested by measuring absorbance at 650 nm using a Sunrise microplate reader from Tecan (Mannedorf, Switzerland) as described previously [Koh C Y, et al., J Biol Chem 282: 29101-13 (2007)]. […] After different incubation times, reactions were quenched with 1% TFA (pH 1.8) and loaded onto a Jupiter Proteo column (4 μm, 90 Å, 100×1.0 mm) attached to a Dionex nano-HPLC system from Thermo Fisher Scientific (Waltham, Mass., USA) and eluted using an acetonitrile gradient with 0.05% TFA and 99.95% MilliQ water as eluent A and 0.05% TFA, 19.95% MilliQ water and 80% ACN as eluent B. Masses of all peaks were measured to identify cleavage products, which were subsequently quantified by integrating the peaks and calculating the area under the curves. To measure the effect of different pre-incubation times on the thrombin inhibitory activity, amidolytic assays were performed for various incubation times (up to 36 h).

[19] = target: T1, human α-thrombin (recombinant); test: thrombin amidolytic assay with S2238, double reciprocal (Lineweaver-Burke) plot
Protocol: as §1
as §2, with “To measure the inhibitory constants, different concentrations of S2238 were used and the residual velocities were determined using the Morrison's tight binding equation.” left out, “To measure the effect of different pre-incubation times on the thrombin inhibitory activity, amidolytic assays were performed for various incubation times (up to 36 h).” left out

[20] = target: T1, human α-thrombin (recombinant); test: thrombin amidolytic assay with S2238, tight-binding fit; remark: listed apart in the source
Protocol: A and C. […] B and D. Residual thrombin amidolytic activities in presence of UV003 and UV004 were measured at different concentrations of S2238 and their Kᵢ were determined.
Thrombin amidolytic activity assays for all peptides were performed in 96-wells microtiter plates in 50 mM Tris buffer (pH 7.4) containing 100 mM NaCl and 1 mg/ml bovine serum albumin. […] The rates of formation of p-nitroaniline were followed by measuring the absorbance at 405 nm for 10 min with a Tecan InfinitePro M200 microplate reader from Tecan (Mannedorf, Switzerland). Dose-response curves were fitted using the GraphPad Prizm software (San Diego, Calif., USA) to calculate IC50 values and Hill coefficients. To measure the inhibitory constants, different concentrations of S2238 were used and the residual velocities were determined using the Morrison's tight binding equation. Inhibition of thrombin fibrinogenolytic activity of peptides were tested by measuring absorbance at 650 nm using a Sunrise microplate reader from Tecan (Mannedorf, Switzerland) as described previously [Koh C Y, et al., J Biol Chem 282: 29101-13 (2007)].

[21] = target: T1, human α-thrombin (recombinant); test: cell-based or functional assay; remark: listed apart in the source
[22] = target: T1, human α-thrombin (recombinant); test: thrombin amidolytic assay with S2238, Morrison tight-binding fit, non-competitive
Protocol: as §3, §4

[23] = target: T1, human α-thrombin (recombinant); test: comparison of Ki values, thrombin amidolytic assay
Protocol: as §4

[24] = target: T1, human α-thrombin (recombinant); test: comparison of Ki values
Protocol: as §4

SGGHQTAVPKISKQGPPGDFEEIPSDEIIE [avathrin L16P, G17P]
fold drop in activity against avathrin (amidolytic IC50) [1]: > 25 fold
IC50, inhibition of thrombin amidolytic activity (S2238) [2]: 181 nM

B1: avathrin (Amblyomma variegatum thrombin inhibitor) (peptide)
peptide: SGGHQTAVPKISKQGLGGDFEEIPSDEIIE
notes: Synthetic 30-residue peptide; one repeat of precursor protein BAD29729
IC50, inhibition of thrombin amidolytic activity [3]: 6.95 nM
percent inhibition of amidolytic activity at 100 µM avathrin [4]: < 30%
percent inhibition of amidolytic activity at 100 µM avathrin [5]: < 30%
percent inhibition of amidolytic activity at 100 µM avathrin [6]: < 30%
percent inhibition of amidolytic activity at 100 µM avathrin [7]: < 30%
percent inhibition of amidolytic activity at 100 µM avathrin [8]: < 30%
percent inhibition of amidolytic activity at 100 µM avathrin [9]: < 30%
percent inhibition of amidolytic activity at 100 µM avathrin [10]: < 30%
percent inhibition of amidolytic activity at 100 µM avathrin [11]: < 30%
percent inhibition of amidolytic activity at 100 µM avathrin [12]: < 30%
percent inhibition of amidolytic activity at 100 µM avathrin [13]: < 30%
percent inhibition of amidolytic activity at 100 µM avathrin [14]: < 30%
IC50, inhibition of the amidolytic activity of clot-bound thrombin (S2238) [1]: 1740 nM
IC50, inhibition of thrombin amidolytic activity, 10 min pre-incubation [1]: 4.86 nM
percent of thrombin amidolytic activity inhibited at 24 h of incubation (avathrin in about 30-fold excess) [1]: > 45%
percent inhibition of amidolytic activity at 100 µM avathrin [15]: < 30%
Ki [16]: 0.545 nM
IC50, inhibition of thrombin amidolytic activity (S2238) [2]: 6.95 nM
Ki [17]: 0.545 nM

SGGHQTAVPKIHKQGLGGDFEEIPSDEIIE (also called 512H) [avathrin S12H]
Ki [18]: 1.23 nM
fold loss of potency against avathrin (amidolytic IC50) [1]: 2 fold
IC50, inhibition of thrombin amidolytic activity (S2238) [2]: 18.5 nM

SGGHQTAVPRISKQGLGGDFEEIPSDEIIE (also called K10R-avathrin) [avathrin K10R]
Ki [18]: 0.172 nM
fold gain in activity against avathrin [1]: 5 fold
IC50, inhibition of thrombin amidolytic activity (S2238) [2]: 1.15 nM

SDGHDTAVPKISKQGLGGDFEEIPSDEIIE [avathrin G2D, Q5D]
Ki [18]: 0.932 nM
fold weaker inhibition against avathrin and QT26 [1]: < 2 fold
IC50, inhibition of thrombin amidolytic activity (S2238) [2]: 13 nM

SGGHQTAVPKIAKQGLGGDFEEIPSDEIIE [avathrin S12A]
fold change of IC50 against avathrin [1]: 20 fold
fold drop in potency against avathrin (amidolytic IC50) [1]: > 10 fold
Ki [19]: 6.08 nM
IC50, inhibition of thrombin amidolytic activity (S2238) [2]: 101 nM

MYSTAPPGDFEEIPDDAIEEGCCC (UV011 with C-terminal GCCC) [UV014]
Ki [20]: 2.47 nM
IC50, inhibition of thrombin amidolytic activity [21]: 1.98 nM

SGGHQTAVP[β3hR]ISKQGLGGDFEEIPSDEIIE [β-avathrin]
fold loss of potency against avathrin (amidolytic IC50) [1]: > 100 fold
Ki [19]: 32 nM
IC50, inhibition of thrombin amidolytic activity (S2238) [2]: 332 nM

B2: IS20 (peptide)
peptide: ISKQGLGGDFEEIPSDEIIE
notes: Avathrin residues 11-30; also called C-terminal cleavage product of avathrin
IC50, inhibition of thrombin amidolytic activity, 0 min [1]: 12.4 nM
IC50, inhibition of thrombin amidolytic activity, 10 min pre-incubation [1]: 22.7 nM
IC50, inhibition of thrombin amidolytic activity (S2238) [2]: 12.2 nM
Ki [22]: 5.76 nM

SDEAVRAIPKMYSTAPPGDFEEIPDDAIEEGCCC (Ultravariegin with C-terminal GCCC) [UV015]
Ki [20]: 0.00852 nM
IC50, inhibition of thrombin amidolytic activity [21]: 1 nM

SDEAVRAIPKMYSTAPPGDFEEIPDDAIEECA (Ultravariegin with C-terminal CA) [UV008]
Ki [20]: 0.0786 nM
IC50, inhibition of thrombin amidolytic activity [21]: 1.82 nM

SDQGDVAEPKMYSTAPPFDFEAIPEEYLDDES [Variegin YS]
Ki [20]: 0.671 nM
IC50, inhibition of thrombin amidolytic activity [21]: 3.16 nM

SDQGDVAIPKMYSTAPPGDFEEIPDDAIEE [UV003]
Ki [20]: 0.00421 nM
IC50, inhibition of thrombin amidolytic activity [21]: 0.6 nM

B3: QT26 (peptide)
peptide: QTAVPKISKQGLGGDFEEIPSDEIIE
notes: Avathrin without its four N-terminal residues
IC50, inhibition of thrombin amidolytic activity, 10 min pre-incubation [1]: 13.5 nM
Ki [16]: 0.76 nM
IC50, inhibition of thrombin amidolytic activity (S2238) [2]: 8.94 nM

SDEAVRAIPKMYSTAPPGDFEEIPEEYLDDES [UV005]
Ki [20]: 0.016 nM
fold drop in affinity against ultravariegin [23]: ~3.6 fold
IC50, inhibition of thrombin amidolytic activity [21]: 0.91 nM

B4: UV011 (peptide)
peptide: MYSTAPPGDFEEIPDDAIEE
notes: also called C-terminal cleavage product of ultravariegin
Ki [20]: 1.39 nM
IC50, inhibition of thrombin amidolytic activity [21]: 1.66 nM
fold better Ki than the avathrin C-terminal cleavage product IS20 [24]: ~4 fold
fold better Ki than the variegin C-terminal cleavage product MH22 [24]: ~10 fold

SDEAVRAEPKMHKTAPPGDFEEIPDDAIEE [UV004]
Ki [20]: 0.00455 nM
IC50, inhibition of thrombin amidolytic activity [21]: 0.46 nM

B5: UV007 (peptide)
peptide: CDEAVRAIPKMYSTAPPGDFEEIPDDAIEE
notes: Ultravariegin with Cys at the N-terminus
Ki [20]: 0.00627 nM
IC50, inhibition of thrombin amidolytic activity [21]: 0.601 nM

SDEAVRAIPKMYSTAPPGDFEEIPDDEIEE (Ultravariegin Ala27Glu) [UV012]
IC50, inhibition of thrombin amidolytic activity [21]: 0.94 nM

SDEAVRAIPKMYSQAPPGDFEEIPDDAIEE (Ultravariegin Thr14Gln) [UV013]
IC50, inhibition of thrombin amidolytic activity [21]: 0.341 nM
